The record followed here is publication PMC4021333.

pKi: −log10 of the molar value.

The target of this assay is Dipeptidyl aminopeptidase BII (DAP BII) from Pseudoxanthomonas mexicana WO24, wild type (Pseudoxanthomonas mexicana WO24) (UniProt V5YM14). In words: enzyme inhibition assay.
Chain of Dipeptidyl aminopeptidase BII (DAP BII) from Pseudoxanthomonas mexicana WO24, wild type (Pseudoxanthomonas mexicana WO24) (V5YM14 25-722): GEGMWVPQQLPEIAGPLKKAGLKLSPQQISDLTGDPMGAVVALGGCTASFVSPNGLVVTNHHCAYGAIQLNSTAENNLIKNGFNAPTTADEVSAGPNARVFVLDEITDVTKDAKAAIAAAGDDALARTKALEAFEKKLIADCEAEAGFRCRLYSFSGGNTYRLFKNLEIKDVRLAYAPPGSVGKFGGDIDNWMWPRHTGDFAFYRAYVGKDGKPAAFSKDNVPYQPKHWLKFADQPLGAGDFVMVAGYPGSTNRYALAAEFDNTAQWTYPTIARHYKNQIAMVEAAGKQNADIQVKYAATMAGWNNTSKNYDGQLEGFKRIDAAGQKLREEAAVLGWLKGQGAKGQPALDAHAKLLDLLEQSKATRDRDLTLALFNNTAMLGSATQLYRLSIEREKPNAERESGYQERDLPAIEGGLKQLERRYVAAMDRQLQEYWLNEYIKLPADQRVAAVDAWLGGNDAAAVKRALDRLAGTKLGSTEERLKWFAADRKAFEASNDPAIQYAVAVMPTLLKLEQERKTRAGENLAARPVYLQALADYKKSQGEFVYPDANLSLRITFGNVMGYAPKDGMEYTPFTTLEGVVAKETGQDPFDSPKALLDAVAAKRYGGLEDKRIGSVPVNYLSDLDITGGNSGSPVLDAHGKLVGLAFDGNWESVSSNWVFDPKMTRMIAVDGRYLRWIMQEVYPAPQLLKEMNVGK

In general, pKi refers to the Ki on a negative log10 scale, so that one unit is a factor of ten. Read a low pKi as a large Ki. In turn, dipeptide Val-Tyr gave a pKi of 3.39.
